± gives the standard deviation of the averaged measurements.
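Note: PSI is a weighted mean of sequencing reads over stability bins, variants kept only with over 10 reads, mCherry proximal and sfGFP distal, peptide attached via GGGS linker.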

For the data set, the system named is Saccharomyces cerevisiae. Nature of the data set: protein stability index of tFT-peptide fusion (C-terminal peptide) (PSI (0-1 scale)); higher = more stable (slower turnover). As to conditions: genetic background: wild type; temperature: 30 C.
Turning to LKAWQRRWEGVR, the protein stability index was found to be 0.752 ± 0.026.
Sequence LKCGGVRCGSAN yielded a protein stability index of 0.648 ± 0.061.
Then LKDEERYKRRKV, with 0.709 ± 0.016; and LKFCSTLLKFAS, with 0.564 ± 0.037; and LKLLIPPSFSLI, with 0.611 ± 0.027.
To LKMGAWAHTETW belongs 0.645 ± 0.033; to LKQNRIKCPWTL, 0.728 ± 0.017.
To LKTNECIPVTEK belongs 0.609 ± 0.029; to LLAHLVIWAPSR, 0.634 ± 0.091.
Regarding LLANYQRPSPLN, the protein stability index was determined as 0.705 ± 0.063.
Then LLAPPLPAVPSF, with 0.731 ± 0.006.
To LLFGMRPMLFSF belongs 0.576 ± 0.038; to LLFLVHGLCFSS, 0.543 ± 0.028; to LLFPALPPPPVR, 0.674 ± 0.028.
To LLFPCSVGLGVV belongs 0.686 ± 0.077; to LLFRPTPCLPPL, 0.686 ± 0.022; to LLFRSPPPTVHS, 0.769 ± 0.088.
As for LLFSNRKVGQQF, the protein stability index turned out to be 0.708 ± 0.011.
Then LLGRPILINRPL, with 0.661 ± 0.0083; and LLGSGTVSGCAG, with 0.642 ± 0.04.
To LLHYPHVPLSPI belongs 0.662 ± 0.021.
Then LLICRLFLFTIW, with 0.555 ± 0.12; and LLIPPLPSLAPP, with 0.759 ± 0.052; and LLLFPLPLLPFH, with 0.686 ± 0.037.
Take LLLGLPLDVGDS: the protein stability index amounted to 0.708 ± 0.066.
Then LLLRSSPVSLSR, with 0.7162 ± 0.0034; and LLLTLVFSFLSC, with 0.531 ± 0.0088; and LLPLLPAPRPPF, with 0.691 ± 0.0063.
To LLPPCYFFLTSP belongs 0.637 ± 0.093; to LLPPPPLPPLPL, 0.796 ± 0.1; to LLPPVLPPTLPP, 0.633 ± 0.0075.
For LLPRPSLDPSPP, the protein stability index worked out at 0.682 ± 0.11.
Then LLPSLSPPPTPP, with 0.655 ± 0.051; and LLPSSLPFPPLR, with 0.72 ± 0.06.
In the case of LLPYPAEPSPRR, the protein stability index is 0.713 ± 0.013.
Take LLRLDGGAGRSV: the protein stability index was determined as 0.627 ± 0.079.
To LLRPPAPPPLPT belongs 0.642 ± 0.17; to LLRRLILLQATW, 0.5677 ± 0.0053.
For LLSGPPVPPSWS, the protein stability index worked out at 0.653 ± 0.19.
Then LLSLALFACSIC, with 0.63 ± 0.023; and LLSLLLLSSSPP, with 0.70828 ± 0.00034; and LLSNDNRIKTIR, with 0.725 ± 0.047.
To LLSPLFCYSSRS belongs 0.6457 ± 0.0013; to LLSPLLLLASLS, 0.534 ± 0.013.
Then LLSSPSVSPPPD, with 0.6754 ± 0.0022.
LLSVSFVGWPLT had a protein stability index of 0.634 ± 0.062.
Then LLTTGGRWWRRP, with 0.669 ± 0.03.
To LLVNSFLIFPPH belongs 0.68474 ± 0.00059; to LLVPCLQPPFRV, 0.622 ± 0.023.
Then LLVTPAPRSTHF, with 0.648 ± 0.064; and LLWNFNLCHCEE, with 0.701 ± 0.011; and LLYANDPTRPVI, with 0.652 ± 0.015.
LMDIPGNPRSLY came in with a protein stability index of 0.604 ± 0.072.
To LMGDRRLFSFSV belongs 0.719 ± 0.12; to LMKSPGGTLTIR, 0.71 ± 0.053.
Then LMPPHPLFLSDI, with 0.724 ± 0.012; and LMQTGVNNQNTT, with 0.72 ± 0.035; and LMWPTSHLPQPQ, with 0.734 ± 0.092.
Then LNDEKIKGKTTK, with 0.732 ± 0.012.
With LNGSRDEHKVMS, the protein stability index was 0.674 ± 0.022.
To LNIPARVSGAVV belongs 0.636 ± 0.017; to LNLRIGDVMRGG, 0.682 ± 0.022.
Then LNNAIAGGSVGI, with 0.702 ± 0.074; and LNSRQATLRPQT, with 0.716 ± 0.021.

Values taken from the supplement of paper PMC10724198.
